Data reported in patent US20250130242A1.
Blank lines part the entries; values can stand above or below the binder they belong to. Non-standard residues stand in square brackets, D forms with d. No end group written: not given here. pGlu = O=C1CC[C@@H](C(=O)O)N1

Experiments:
S24201 antibody [1] = assay: competitive ELISA; coated C1A2-01-BSA (printed C1A1-02-BSA), S24201 125 ng/mL, competitive peptide 0.32 ng/ml
S24201 antibody [2] = assay: competitive ELISA; coated C1A2-01-BSA (printed C1A1-02-BSA), S24201 125 ng/mL, competitive peptide 8 ng/ml
S24201 antibody [3] = assay: competitive ELISA; coated C1A2-01-BSA (printed C1A1-02-BSA), S24201 125 ng/mL, competitive peptide 5000 ng/ml
S24201 antibody [4] = assay: competitive ELISA; coated C1A2-01-BSA (printed C1A1-02-BSA), S24201 125 ng/mL, competitive peptide 40 ng/ml
S24201 antibody [5] = assay: competitive ELISA; coated C1A2-01-BSA (printed C1A1-02-BSA), S24201 125 ng/mL, competitive peptide 1.6 ng/ml
S24201 antibody [6] = assay: competitive ELISA; coated C1A2-01-BSA (printed C1A1-02-BSA), S24201 125 ng/mL, competitive peptide 1000 ng/ml
S24201 antibody [7] = assay: competitive ELISA; coated C1A2-01-BSA (printed C1A1-02-BSA), S24201 125 ng/mL, competitive peptide 200 ng/ml
S24201 antibody [8] = assay: competitive ELISA; coated C1A2-01-BSA (printed C1A1-02-BSA), S24201 125 ng/mL, competitive peptide 0 ng/ml (baseline without competitor)

Absorbance at wavelength 492 nm (absorbance at 492 nm) (S24201 antibody [1]): 0.712
Absorbance at wavelength 492 nm (absorbance at 492 nm) (S24201 antibody [2]): 0.668
Absorbance at wavelength 492 nm (absorbance at 492 nm) (S24201 antibody [3]): 0.074
Absorbance at wavelength 492 nm (absorbance at 492 nm) (S24201 antibody [4]): 0.541
Absorbance at wavelength 492 nm (absorbance at 492 nm) (S24201 antibody [5]): 0.735
Absorbance at wavelength 492 nm (absorbance at 492 nm) (S24201 antibody [6]): 0.142
Absorbance at wavelength 492 nm (absorbance at 492 nm) (S24201 antibody [7]): 0.306
Absorbance at wavelength 492 nm (absorbance at 492 nm) (S24201 antibody [8]): 0.752
B1: peptide C1A2-02 (J…) (peptide)
peptide: [pGlu]SLQEETVRK

Absorbance at wavelength 492 nm (absorbance at 492 nm) (S24201 antibody [1]): 0.706
Absorbance at wavelength 492 nm (absorbance at 492 nm) (S24201 antibody [2]): 0.681
Absorbance at wavelength 492 nm (absorbance at 492 nm) (S24201 antibody [3]): 0.313
Absorbance at wavelength 492 nm (absorbance at 492 nm) (S24201 antibody [4]): 0.693
Absorbance at wavelength 492 nm (absorbance at 492 nm) (S24201 antibody [5]): 0.7
Absorbance at wavelength 492 nm (absorbance at 492 nm) (S24201 antibody [6]): 0.521
Absorbance at wavelength 492 nm (absorbance at 492 nm) (S24201 antibody [7]): 0.652
Absorbance at wavelength 492 nm (absorbance at 492 nm) (S24201 antibody [8]): 0.702
B2: peptide C1A2-03 (…) (peptide)
peptide: QSLQEETVRK
